Results from the DeepSol protein solubility set.

Test: soluble on expression in E. coli; label from the status in PepcDB or PDB records

| Sequence | soluble on expression in E. coli |
| --- | --- |
| MGSDKIHHHHHHMDSSRSDPMRLMIFGAGYSGKAIGQHFIQQGIPVSGTTRSPAKAKALSDLGIEPLVFDGQRLSDEIIQAMACATHVVQSIAPGSDGDPLLRLTQGALKTWMPKVQWLAYLSTVGVYGDHQGAWVDEDTVCKPVSVRSKERVEAEQAWGRAALAAGVPLSTLRLSGIYGPGRNGLVNMAEGTARRLVKKDQVFNRIRVEDIAAATWFLAGRNEQGIFNITDHEPAPPQDVVAEAARLMEVEPPPEQAFETAELSPMARSFYGENKRVMNAKVRALGFAFAYPDYRVSLSQLWSSGRWRG | not soluble |
| MGSDKIHHHHHHMDTAGMISAVQEILANRSLDGWEITAASSHILSIEVKEQKVDTFKCSAPLGVSVRVLKNGGMGFSFSTSMAPEDLARMVDNALVGAESQTPDADHGFPDPPAVYPDVPGLFDDGLAAVAEEAKIAVALDLERLTLAADPRVRKVRKATYGDSMVETMVVNSRGVSCRYRGTSVSASVTAVAEENGQSQMGWDFDFSSRFDGISVERIVAGAVAKATGLLGAATVPTMRCPAVLDTYVATEILEVLAPAFLAESVQKGKSLLAGKRGEMIVAPLLTIRDDGTLPGGMGTAPFDAEGVPKRNTVLVQNGRLDSYLYDTLRARKEGVAPTGNAIRSGIKSPPHMGVSNLFIENGTEAPEALLAGITRGVLLTEVMGMHTANTISGDFSVGAAGFLVEDGRVTRPVKGIAIAGNILELFRGVEAVGNDLRFYGTVGSPSLRIAALDVSGE | not soluble |
| MGSDKIHHHHHHMDTIGRRLDMGKRIVLADPRGFCAGVDRAILTVRTILKSADTPRADGLPPVYVRRQIVHNKHVVEDLAAQGAVFVQELAEIPDAAAEAGIPIVFSAHGVSPAVKAEATARGMHVVDATCPLVSKVHREVLRFVKEGYEIIYIGHKGHDEAVGVVEESPEHVHLIEHASDVDSLDFQPDTKLVLLTQTTLSVDETAGTITALKARFPWLEMPPNSDICYATSNRQAAVKLVAEQADCVVIVGSANSSNSVRLMEVAQEGLSARYASKTAVGAAGRAHRVDDASELDPAWFEGVESVGISSGASVPDELVSGVVAALQELGYQDVSTIETIKENMHFVLPAELRK | not soluble |
| MGSDKIHHHHHHMDTLNQIDISIIIPIYNVEKYLTVCIDSLKNQGGLRMEIILVNDGSTDLSGEIADEYAKKEERIKVIHQENGGASAARNVGLDIATEEYIAFLDSDDWIKDESLSLLYDEAVKHHADVVMGNMWLCHQDGSMDKPFKCISNGSIKELLSGKESFIELVKTCFYLPMPFKYIYNRKYLHKIQARFEEGIMHEDELWCPIVLCQAERMVITNIEFYYYRQNEESVMHTTSLARRLKSLFQVTEGLIKFSDQFVSSKTSVDLRSWWYVNILRLYSKAFTLLPNIKDSSYIVHKHYLDRFWRDCGQMIPESIQRCRNYYYKAEAGLKEYTDWRVSDWVAGVDCQIKAGKKVMLVFNTINGEDLQLKIEDVPVDWVITTDRKYFQQATIVVFHLPTLHYELENDQDKLEGQTWVSWHLESEKDDPGINDPEISELFDLLISDPQDSEGEQHPLLRLCRNYVNNG | not soluble |
| MGSDKIHHHHHHMDVDLNELAGQFASGFLTVDGVYRTTLEAGRVLGHTRAYPTPKSGFLFALKGEASFVFNGTAYHLSPGKVVHGGKNMELIVKVGPAAFEYCLIHYTLHTRSNHPNDTDSHFLLEPGENLAITEKLDLLHRIKSTPGNFPEIQAKALFYTIFHDMLICARNRLNRESQLVIEQVVEYIHHHYMEPMTVKKLADMSGMGVKPFSYLFKKYIGMFPIDYLIQYRLKRAKNLLVSSNSSIADIAESIGYLDALYFSRLFKKHIGCSPTAFRAQMGNCPSDDQ | not soluble |
| MGSDKIHHHHHHMDVIKQIQQAIVYIEDRLLEPFNLQELSDYVGLSPYHLDQSFKMIVGLSPEAYARARKMTLAANDVINGATRLVDIAKKYHYANSNDFANDFSDFHGVSPIQASTKKDELQIQERLYIKLSTTERAPYPYRLEETDDISLVGYARFIDTKYLSHPFNVPDFLEDLLIDGKIKELRRYNDVSPFELFVISCPLENGLEIFVGVPSERYPAHLESRFLPGKHCAKFNLQGEIDYATNEAWYYIESSLQLTLPYERNDLYVEVYPLDISFNDPFTKIQLWIPVKQSPYDED | not soluble |
| MGSDKIHHHHHHMDVLRCENLKKRFGRRYVVNGVNLEFHRGEIVGLLGPNGAGKTTIFNMILGVVVPTSGKIIFRDVDITKFPVYRRARLGITYLQQETSIFGGLTVRENIDLVLRFHEKDKEKRERKIEELLHEFHLKHLENQPASFLSGGEKRKLELARMMCLNPAFILLDEPFSGIDPKTVKEIQKMTLELKQKNFGIVITDHNVDELVEIADRIYVIYKGEILAEGSPERILEDETVREVYLGT | not soluble |
| MGSDKIHHHHHHMDVRRPIREAVNNRRKPKFLSVSFNQDDSCFSVALENGFRIFNTDPLTSKLSKTFKESATNQSRGTGIGYTRMLYRTNYIALVGGGKRPRHALNKLIIWDDLLQKETITLKFMSSIKDVFLSRIHIVVVLENTIEIFQFQTNPQRICPILDIPPNGSVDYVVCSSKHLQSQASQSQSKILEIIAFPSNKCVGQIQVADLSQIKYNSQNPKESALLPTSIIKAHKNPIKLVRLNRQGTMVATCSVQGTLIRIFSTHNGTLIKEFRRGVDKADIYEMSFSPNGSKLAVLSNKQTLHIFQIFETTNTETNTPDHSRANGSSHPLKNYIPKGLWRPKYLDSVWSICNAHLKNPIFDAHRNDNSGDVTHDNEFYKDRCRIGWCQDSNNREQDDSLVLVWQNSGIWEKFVILEKEQQDSSKTHYSLNESLRNEDTKSAGEPTRWELVRESWREL | not soluble |
| MGSDKIHHHHHHMDYELLKTFICLAKLKNFTKTAEQLHVVQSTITSRIKHLEHTIGETLFIRTNKKVLLTGAGEIFLPYAKQLLSIQETAISRLHTLELFKDTLNIGAVHSIYDCHVQNMILKYMQRNKKIAIKITIEHSEELIQMLHDNQLDVTFTYLDIKSSQFICNPFYTDKIILVTGSQNNYNERGITNDELRSLPLLSSAILTEEFQEWFYSIFPRNYIYPLDININSNIVTFLKDGIGFSFMPESAAKNFIEEGSLIEVKLLESTPPSMKSYVLLNKQRINSEAVHSWLNEFPTLTST | not soluble |
| MGSDKIHHHHHHMDYPDKMTPAQRAAAKAKGEPADRVACNPNIANGMARIAGYKISQFNDDPEALADAIIKTYRRFGADGARIFTDLFLVSEAMGAKVRKPEDNTADLEEPAINDMSEFDKLKVIDPYTQGRIPVHLRAIEIVRDEIASEVGVTASVVGPFTNAFFLIGVEKMTKMLLKDPESVHKLCEISLQSCIALTDAVLEKGVGVTISEPLSSCTVVSPKHFREFSAPYLKRLIDHIKARTGKLVIHICGITDPIWDDLVEMGVDVLSIDNVADMEKCAETVGDKMVIAGNVDPSAIMYAGSREDVRKATIKCAKQGLKAKKGFMIMSGCSLPVEVPIENIDAMMDTAREMGWPVTEEKLDYLLSFDKYKD | not soluble |
| MGSDKIHHHHHHMEAKWLEDFLSLADTKSFSRAARHRHLTQSAFSRRIAALETWMDAKLVDRSINPITLTPAGQMFRGLAADILRSMYAARNLVNGYDQFAASDQVVRFAVAHTLVFTLFPEWLKQLNGEVGHVTARVNAVNVPEGVQQLVEGECDLLLGYHHPQLPIVLDPNHFPFVTLGVERILPVSTPDAHGRPVFELPGAPDAPLPLLAYSSGAFLGNVVEMLLLNASESYALHRCFETHMSEALKGMVVAGHGIGWLPESCVAKELAEGSLVRAGSADWITELEIRLYRSARKRGLAAEQLWTYIMNRPRTAADGLVAAEPGAPAVRIARRSVGGSR | not soluble |
| MGSDKIHHHHHHMEFQLDKDWRLQPIKGATGQTYMGIKETEKVFIKRNTSPLLAALSKEGLAPKMIWTKRTANGDVLTAQEWLEGRLLHADEIGKRNDVIDVLYQLHHSNLLKDMLKKIGGEVCTPLTMLKEYKRQLPKELKRNSYLKEVITYLYNHLPEYPETSYVAVHGDVNHRNWLVSNNYLYLVDWDSVMVADPAVDLGMILSHYVPRSGWNQWLLSYGLIPNESTVQRIYWYGLFSFLQEIVRHHQEGERRAMTAEILQLKRMFSI | not soluble |
| MGSDKIHHHHHHMEIGLIDIKGTLPCFENFGNLPTKIIHENNISKIKDLEMLIIPGGSIVESGSFTDEFKKQILDFDNYIVGICSGFQILSEKIDIGRKSPIPIIKEGLGLLNVEFSPLICTDLVKFNIENDNLFGKKNQLGHGFHCHTYGNIEITNNSTKIWTTSEIEKLNYKMVGKQNILSGVFKNKVYGTMVHNLLDNDFVVENFLKNMKIKDDEKQEIFKKNSILKEKLKDRSKISENFKKIESNDKKGIILLATGSESGKTFLSTSICSKLKGKTFVSKIGPDVRDIVPSLYLLREPMTKFSSIKLSDRGWSEPSEFLEFVKNSKFNNYIIEGVMGAFTGALNKKNYSGSEVSKILGFPVYIISSCSKTGIEGSFVECMAYHSLLKEMGVNVAGIVLNRVYNAELLEKVKKIANDLNIDLIGVNKLNVNVDNKRGLIPEVEIDYEEFCNATMKLDFEIDIPKINPEKINEDSKTFEEYLKIWSEKLININ | not soluble |
| MGSDKIHHHHHHMEIKQLKEGLEGKVDFSLEYLREKPRQRAHMVASLLDDFFQPLSQHVLLEERISIMIRRGYVSRNLQDGSLNQHLQNGYERVMSGSLQSYKFRNVLTTATCLSLIGCSGSGKSSTLDRILATYPQVIYHEKHNFFQLSYLKIECPNNGSQQSLCLNFFREVDKRLGTKYESDYGGKRHGVPTLLALMSQVANQRAIGVLVIDEIQRLKIRKAVGREQMLEFFVELVNTVGIPVILVGTPKARPLFEIELQSARRTTGIGSLYWQPMPQYPDNPAERSEWEAFTNKLWRYQWLTRRDEVLTDEIRDCWYELSQGVLDIVVKLFVLAQLRAIASKLERITVKVLRSVYETELKPVHPMLHAIRRGNPNLIAKYSDLRIEDIDKRLLTLHQKIQALPEEPELPFSNNEQAMRLYNLLVQMDCRSDLLIPLVEKIFIERPKLTLRNMMPIVLEWYENGKEQPTNAPKPAKAALVKRTDWNTLESDDLRFIYSQVGKSESIYEALKDNGLVLDLKKVN | not soluble |
| MGSDKIHHHHHHMEKIIITATAESIEQVKELLVAGVDRIYVGEADHALRIPTNFTYDELREIAELVHSAGKELTVAANALMHQDMMDNIKPFMELMREIKVDYLVVGDTGIFYINKRDGYNFKLIYDTSVFVTSSRQINFWKDHGAVEAVLAREIPSEELFDIAKNLEMPAEILVYGASVIHHSKRTLLQNYYNFTKADETDLSRGRGLFLAEPSDPDSHYSIFEDKHGTHIFINNDIDMMTKLSELDEHGYHNWKLDGIYCPGQNFVEIVKLFVQARDLIEKGEFTYDQAFLLDEQVRKLHPAERGLDTGFYEFDRNKVK | not soluble |
| MGSDKIHHHHHHMEKTMDRIYKIGGHCFALPDERLMEAVDGISGFKPFVWQPDLVSAKDVYEGAWLPDFTVWEGNGWGFPAFQRKSYGFGYEDVTGTFGVSGDSFLLELAPQGEPSLYLRTMGGTGRGICLYGNYSPRLLRFALWMGYGLMTVRKDTVALHGSCIVYKGKAVLFLGESGTGKSTHTRLWRENIAGSKLLNDDSPIVRYEEGGVWVYGSPWSGKTPCYKAERYPLAGCVRLSQAPYNKIRRLNTLQAYAALHPSAPPAFAYEEELYCGVCSLLEKMVSSIPVYHLECLPDAEAVKLVCRTLYGDGYEADSE | not soluble |
| MGSDKIHHHHHHMELDDAYANGAYIEGAADYPPRWAASAEDFRNSLQDRARLNLSYGEGDRHKFDLFLPEGTPVGLFVFVHGGYWMAFDKSSWSHLAVGALSKGWAVAMPSYELCPEVRISEITQQISQAVTAAAKEIDGPIVLAGHSAGGHLVARMLDPEVLPEAVGARIRNVVPISPLSDLRPLLRTSMNEKFKMDADAAIAESPVEMQNRYDAKVTVWVGGAERPAFLDQAIWLVEAWDADHVIAFEKHHFNVIEPLADPESDLVAVITA | not soluble |
